Experimental data: article PMC7007264

Target: Rad51-2A (Saccharomyces cerevisiae, UniProt P25454 1-400, S125A;S375A)
Assay: EMSA

Sequence of Rad51-2A (P25454 whole entry S125A/S375A): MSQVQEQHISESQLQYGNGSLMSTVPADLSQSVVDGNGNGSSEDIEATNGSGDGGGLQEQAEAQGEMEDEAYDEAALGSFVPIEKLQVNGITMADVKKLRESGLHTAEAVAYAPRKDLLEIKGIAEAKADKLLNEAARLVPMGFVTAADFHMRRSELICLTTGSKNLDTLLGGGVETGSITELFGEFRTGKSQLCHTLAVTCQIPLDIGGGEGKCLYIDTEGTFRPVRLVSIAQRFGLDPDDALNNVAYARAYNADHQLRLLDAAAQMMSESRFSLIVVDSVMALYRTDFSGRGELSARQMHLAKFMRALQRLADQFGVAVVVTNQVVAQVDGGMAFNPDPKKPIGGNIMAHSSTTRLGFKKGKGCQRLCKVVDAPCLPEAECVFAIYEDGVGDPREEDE

B1: ssDNA EMSA probe (ssDNA)
DNA: CGGGTGTCGGGGCTGGCTTAACTATGCGGCATCAGAGCAGATTGTACTGAGAGTGCACCATATGCGGTGTGAAATACCGCACAGATGCGT
  binding result: no binding
